The chains are these.
B1: glmS ribozyme (parent)
chain: AUAAAAGCGCCAGAACUACAGAAAUGUAGUUGACGAGGAGGAGGUUUAUCGAAUUUUCGGCGGAUGCCUCCAAA

Holding throughout (conditions): with glucosamine-6-phosphate
Data set [1] covers variants of B1. Description: kcat; higher = faster cleavage; RNA array. In a few lines:
(§1)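 Barcoded ribozyme variants on sequenced MiSeq chips were transcribed in situ by E. coli RNA polymerase and followed at 37 °C through a hybridised Cy3 probe. Glucosamine-6-phosphate at 40 μM to 10 mM in HEPES/KCl/Mg(OAc)2 buffer was flowed in, and tiles were imaged over ~14 h. Signals were normalised to baseline and to non-cleaving reference variants, and per-tile medians were fit to one- or two-exponential decays to give kobs. Weighted Michaelis–Menten fits across concentrations gave kcat and KM.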

The variants in data set [2] derive from B1. In words: self-cleavage kobs at 640 uM GlcN6P; higher = faster cleavage; RNA array. In a few lines: as §1
The variants in data set [3] derive from B1. In words: KM; higher = weaker cofactor use; RNA array. In a few lines:
as §1

Data set [4] covers variants of B1. Description: self-cleavage kobs at 40 uM GlcN6P; higher = faster cleavage; RNA array. In a few lines:
as §1

Data set [5] covers variants of B1. Description: self-cleavage kobs at 160 uM GlcN6P; higher = faster cleavage; RNA array. In a few lines:
as §1

In data set [6] the parent is B1. In words: self-cleavage kobs at 2500 uM GlcN6P; higher = faster cleavage; RNA array. Summed up:
as §1

In data set [7] the parent is B1. In words: self-cleavage kobs at 10000 uM GlcN6P; higher = faster cleavage; RNA array. In a few lines: as §1

By kcat is commonly meant the number of substrate molecules converted per active site and unit of time at saturation. One may read the KM as the concentration of substrate that gives half-maximal velocity.

± gives the standard error. For some assays here: This sample holds only a part of the variants without activity.

As to AUAAAAGCGCCAGAACUACAGAAAUGUAGUUGACGAGGAGGAGGUUUAUCUAAUUUUCGGCGGAUGCCACCAAA [G51U U69A], the kcat in data set [1] was found to be 5.12e-05 ± 2.4e-05 s⁻¹. The “self-cleavage kobs at 640 uM GlcN6P” value in data set [2] was found to be 7.72e-05 ± 1.7e-05 s⁻¹.
Take AUAAAAGCGCCAGAACUACAGAAAUGUAGUUGACGAGGAGGAGGUUUAUCGAAUUAUCGGCGGAUGGCUCCAAA [U56A C67G]: the kcat in data set [1] worked out at 0.00221 ± 0.00081 s⁻¹. In addition, the KM in data set [3] turned out to be 1310 ± 590 µM. Also, the “self-cleavage kobs at 40 uM GlcN6P” value in data set [4] came to 6.73e-05 ± 6.8e-06 s⁻¹. Further, the “self-cleavage kobs at 160 uM GlcN6P” value in data set [5] worked out at 0.000246 ± 2.7e-05 s⁻¹. The “self-cleavage kobs at 640 uM GlcN6P” value in data set [2] amounted to 0.000684 ± 0.00015 s⁻¹. The “self-cleavage kobs at 2500 uM GlcN6P” value in data set [6] is 0.000905 ± 0.00024 s⁻¹. In data set [7], the “self-cleavage kobs at 10000 uM GlcN6P” value stood at 0.00313 ± 0.00047 s⁻¹.
Consider AUAAAAGCGCCAGAACUACAGAAAUGUAGUUGACGAGGAGGAGGUUAAUCGAAUUUUCGGCGGAGGCCUCCAAA [U47A U65G], for which the kcat in data set [1] stood at 0.00507 ± 0.0003 s⁻¹. In addition, the Michaelis-Menten constant (KM) in data set [3] came out at 3540 ± 320 µM. Further, the “self-cleavage kobs at 40 uM GlcN6P” value in data set [4] amounted to 5.62e-05 ± 9.4e-06 s⁻¹. In addition, the “self-cleavage kobs at 160 uM GlcN6P” value in data set [5] came out at 0.000236 ± 6.6e-05 s⁻¹. Besides, in data set [2], the “self-cleavage kobs at 640 uM GlcN6P” value was 0.000735 ± 0.00012 s⁻¹. Further, in data set [6], the “self-cleavage kobs at 2500 uM GlcN6P” value amounted to 0.00229 ± 0.00035 s⁻¹. Also, the “self-cleavage kobs at 10000 uM GlcN6P” value in data set [7] stood at 0.00369 ± 0.00037 s⁻¹.
Consider AUAAAAGCGCCAGAACUACAGAAAUGUAGUUGACGAGGAGGAGGUUUAUUGAAUUUUCUGCGGAUGCCUCCAAA [C50U G59U], for which the catalytic constant (kcat) in data set [1] was under 1e-05 s⁻¹. The KM in data set [3] worked out at 71.2 ± 32 µM. Besides, the “self-cleavage kobs at 40 uM GlcN6P” value in data set [4] is under 1e-05 s⁻¹. For the same variant, in data set [2], the “self-cleavage kobs at 640 uM GlcN6P” value is under 1e-05 s⁻¹. The “self-cleavage kobs at 10000 uM GlcN6P” value in data set [7] was under 1e-05 s⁻¹.
Consider AUAAAAGCGCCAGAACUACAGAAAUGUAGUUGACGAGGAGGAGGUUUAUCGAUUUUUAGGCGGAUGCCUCCAAA [A53U C58A], for which the kcat in data set [1] came to 0.000327 ± 1.5e-05 s⁻¹. In data set [3], the Michaelis-Menten constant (KM) stood at 3010 ± 250 µM. The “self-cleavage kobs at 640 uM GlcN6P” value in data set [2] came out at 5.94e-05 ± 5.9e-06 s⁻¹. The “self-cleavage kobs at 2500 uM GlcN6P” value in data set [6] turned out to be 0.000143 ± 1.3e-05 s⁻¹. Also, the “self-cleavage kobs at 10000 uM GlcN6P” value in data set [7] worked out at 0.000256 ± 2.2e-05 s⁻¹.
AUAAAAGCGCCAGAACUACAGAAAUGUAGUUGACGAGGACGAGGAUUAUCGAAUUUUCGGCGGAUGCCUCCAAA [G40C U45A]: the kcat in data set [1] came out at 0.00147 ± 0.00022 s⁻¹. Further, the KM in data set [3] was 823 ± 200 µM. Besides, in data set [4], the “self-cleavage kobs at 40 uM GlcN6P” value was 7.94e-05 ± 9.2e-06 s⁻¹. The “self-cleavage kobs at 160 uM GlcN6P” value in data set [5] worked out at 0.000183 ± 3.5e-05 s⁻¹. In data set [2], the “self-cleavage kobs at 640 uM GlcN6P” value amounted to 0.000631 ± 7.8e-05 s⁻¹. The “self-cleavage kobs at 2500 uM GlcN6P” value in data set [6] turned out to be 0.00123 ± 0.00018 s⁻¹. Besides, the “self-cleavage kobs at 10000 uM GlcN6P” value in data set [7] was found to be 0.00131 ± 0.00019 s⁻¹.
For AUAAAAGCGCCAGAACUACAGAAAUGUAGUUGACGAGGAGGAGGCUUAUCGAAUUUUCGGCGGAUGCCUCAAAA [U45C C71A], in data set [1], the kcat was found to be 0.00125 ± 0.00022 s⁻¹. For the same variant, the KM in data set [3] is 4720 ± 1500 µM. Besides, in data set [2], the “self-cleavage kobs at 640 uM GlcN6P” value was 0.00014 ± 3.9e-05 s⁻¹. For the same variant, the “self-cleavage kobs at 2500 uM GlcN6P” value in data set [6] stood at 0.000744 ± 0.00031 s⁻¹. For the same variant, in data set [7], the “self-cleavage kobs at 10000 uM GlcN6P” value amounted to 0.000832 ± 0.00015 s⁻¹.
AUAAAAGCGCCAGAACUACAGAAAUGUAGUUGACGAGGAGGAGGUUUGUCGAAUUUUCGGCGGAGGCCUCCAAA [A48G U65G]: the turnover number (kcat) in data set [1] amounted to 8.76e-05 ± 3.5e-05 s⁻¹. The “self-cleavage kobs at 40 uM GlcN6P” value in data set [4] was under 1e-05 s⁻¹. Moreover, the “self-cleavage kobs at 160 uM GlcN6P” value in data set [5] was under 1e-05 s⁻¹. For the same variant, in data set [7], the “self-cleavage kobs at 10000 uM GlcN6P” value turned out to be 3.81e-05 ± 1.3e-05 s⁻¹.
In the case of AUAAAAGCGCCAGAACUACAGAAAUGUAGUUGACCAGGAGGAGGUUUAUCGAAUUUUUGGCGGAUGCCUCCAAA [G35C C58U], in data set [1], the turnover number (kcat) was under 1e-05 s⁻¹. In data set [5], the “self-cleavage kobs at 160 uM GlcN6P” value was under 1e-05 s⁻¹. The “self-cleavage kobs at 640 uM GlcN6P” value in data set [2] was under 1e-05 s⁻¹.
As to AUAAAAGCGCCAGAACUACAGAAAUGUAGUUGACGAGGAGGAGGUUUAUCGAAUUAUCGGCGGCUGCCUCCAAA [U56A A64C], in data set [1], the kcat is 6.42e-05 ± 1e-05 s⁻¹. Also, the “self-cleavage kobs at 40 uM GlcN6P” value in data set [4] is under 1e-05 s⁻¹. Moreover, the “self-cleavage kobs at 2500 uM GlcN6P” value in data set [6] was determined as 6.08e-05 ± 1.1e-05 s⁻¹. For the same variant, the “self-cleavage kobs at 10000 uM GlcN6P” value in data set [7] worked out at 5.71e-05 ± 9.1e-06 s⁻¹.
On to AUAAAGGCGCCAGAACUACAGAAAUGUAGUUGACGAGGAGGAGGUUUAUCGAAUUUUCGGCGGAUGCCUCUAAA [A6G C71U], for which, in data set [1], the turnover number (kcat) is 6.03e-05 ± 2.1e-06 s⁻¹. For the same variant, in data set [3], the KM was determined as 1890 ± 260 µM. For the same variant, the “self-cleavage kobs at 2500 uM GlcN6P” value in data set [6] turned out to be 3.33e-05 ± 8e-06 s⁻¹. In addition, the “self-cleavage kobs at 10000 uM GlcN6P” value in data set [7] came to 5.1e-05 ± 6.3e-06 s⁻¹.
Take AUAAAAGCGUCAGAACUACAGAAAUGUAGGUGACGAGGAGGAGGUUUAUCGAAUUUUCGGCGGAUGCCUCCAAA [C10U U30G]: the turnover number (kcat) in data set [1] was under 1e-05 s⁻¹. The “self-cleavage kobs at 40 uM GlcN6P” value in data set [4] was under 1e-05 s⁻¹. For the same variant, the “self-cleavage kobs at 160 uM GlcN6P” value in data set [5] was under 1e-05 s⁻¹. In addition, in data set [2], the “self-cleavage kobs at 640 uM GlcN6P” value was under 1e-05 s⁻¹.
As to AUAAAAGCACCAGAACUACAGAAAUGUAGUUCACGAGGAGGAGGUUUAUCGAAUUUUCGGCGGAUGACUCCAAA [G9A G32C C67A], the kcat in data set [1] is under 1e-05 s⁻¹. Besides, in data set [3], the KM was found to be 304 ± 150 µM. Further, the “self-cleavage kobs at 2500 uM GlcN6P” value in data set [6] was under 1e-05 s⁻¹.
As to AUAAAAGCGCCAGAUCUACAGAAAUGUAGUUGACGAGGAGGAGGUUUAUCGAAUAUUCGGCGGAUGCCUCCAAA [A15U U55A], the turnover number (kcat) in data set [1] was 0.00715 ± 0.0012 s⁻¹. The KM in data set [3] amounted to 2060 ± 490 µM. Further, the “self-cleavage kobs at 40 uM GlcN6P” value in data set [4] came to 0.000164 ± 1.8e-05 s⁻¹. In data set [5], the “self-cleavage kobs at 160 uM GlcN6P” value stood at 0.000472 ± 5.3e-05 s⁻¹. For the same variant, the “self-cleavage kobs at 640 uM GlcN6P” value in data set [2] was 0.00147 ± 0.00021 s⁻¹. Besides, the “self-cleavage kobs at 2500 uM GlcN6P” value in data set [6] amounted to 0.00588 ± 0.0011 s⁻¹. For the same variant, the “self-cleavage kobs at 10000 uM GlcN6P” value in data set [7] turned out to be 0.00586 ± 0.00053 s⁻¹.
AUAAAAGCGCCAGAACUACAGAAAUGUAGUGGACGAGGAGGAGGUUUAUCGAAUUUUCGGCGGAUGUCUCCAAA [U31G C67U]: the kcat in data set [1] amounted to 0.00291 ± 0.00094 s⁻¹. In addition, the KM in data set [3] worked out at 1040 ± 460 µM. For the same variant, in data set [4], the “self-cleavage kobs at 40 uM GlcN6P” value worked out at 0.000124 ± 9.4e-06 s⁻¹. Also, the “self-cleavage kobs at 160 uM GlcN6P” value in data set [5] was 0.000329 ± 6.4e-05 s⁻¹. Moreover, the “self-cleavage kobs at 640 uM GlcN6P” value in data set [2] was determined as 0.00082 ± 0.00012 s⁻¹. Moreover, the “self-cleavage kobs at 2500 uM GlcN6P” value in data set [6] turned out to be 0.00179 ± 0.00027 s⁻¹. Besides, the “self-cleavage kobs at 10000 uM GlcN6P” value in data set [7] turned out to be 0.00391 ± 0.00047 s⁻¹.

For the origin of these results see the supplement of paper PMC7125110.
